Positions of bridges follow the written chain, without caps; N, C: chain ends. Non-standard residues stand in square brackets, D forms with d. Phe(4-F) = N[C@@H](Cc1ccc(F)cc1)C(=O)O; R8 = C=CCCCCCC[C@@](C)(N)C(=O)O; Cit = NC(=O)NCCC[C@H](N)C(=O)O; αMeD = C[C@](N)(CC(=O)O)C(=O)O; αMeL = CC(C)C[C@](C)(N)C(=O)O; hLeu = CC(C)CC[C@H](N)C(=O)O; S5 = C=CCCC[C@](C)(N)C(=O)O; Aib = CC(C)(N)C(=O)O
How the values were obtained:
[1] = molecular target: T1, BCL-XL (UniProt Q07817 1-209); experiment: Ki; method not stated; unit not printed (nM per Table 6)
T1 construct: Target of the Ki columns
T1 sequence (Q07817 1-209): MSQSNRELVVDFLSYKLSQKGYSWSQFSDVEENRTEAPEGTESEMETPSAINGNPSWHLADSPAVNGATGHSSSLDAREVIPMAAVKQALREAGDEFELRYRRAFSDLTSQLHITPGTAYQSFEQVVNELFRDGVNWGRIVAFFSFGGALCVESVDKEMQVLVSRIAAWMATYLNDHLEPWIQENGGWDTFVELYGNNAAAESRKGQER

[2] = molecular target: T2, MCL-1 (UniProt Q07820 172-327, limits assumed); experiment: as above
T2 construct: Target of the Ki columns; also called Myeloid cell leukemia 1
T2 sequence (Q07820 172-327 limits assumed): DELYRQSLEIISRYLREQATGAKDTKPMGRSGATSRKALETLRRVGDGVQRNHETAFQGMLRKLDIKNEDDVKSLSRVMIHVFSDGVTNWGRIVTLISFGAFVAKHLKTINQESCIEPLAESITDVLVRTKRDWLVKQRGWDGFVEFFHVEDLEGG

[3] = molecular target: BCL-2 (UniProt P10415 1-217, limits assumed); experiment: Ki table, method not stated
Target sequence in this assay (P10415 1-217 limits assumed): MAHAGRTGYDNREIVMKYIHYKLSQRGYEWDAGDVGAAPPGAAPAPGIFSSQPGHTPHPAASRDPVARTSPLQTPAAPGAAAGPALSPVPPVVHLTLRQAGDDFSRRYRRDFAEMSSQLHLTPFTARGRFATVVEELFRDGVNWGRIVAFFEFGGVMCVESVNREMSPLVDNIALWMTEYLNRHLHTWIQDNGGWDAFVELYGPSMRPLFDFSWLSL

[4] = molecular target: BCL-XL (UniProt Q07817 1-209); experiment: Ki table, method not stated
Target sequence in this assay (Q07817 1-209): as the sequence (Q07817 1-209) above

[5] = molecular target: T3, MCL-1 (UniProt Q07820 172-327, limits assumed); experiment: Ki table, method not stated
T3 construct: also called Myeloid cell leukemia 1
T3 sequence (Q07820 172-327 limits assumed): as the sequence (Q07820 172-327 limits assumed) above

[6] = molecular target: T4, BCL-2 (UniProt P10415 1-217, limits assumed); experiment: Ki; method not stated; unit not printed (nM per Table 6)
T4 construct: Target of the Ki columns
T4 sequence (P10415 1-217 limits assumed): as the sequence (P10415 1-217 limits assumed) above

Row | Binder | Ki [1] [nM] | Ki [2] [nM] | further results
1 | Ac-AWIAAALR[R8][hLeu]GDAFN[S5]Y[Phe(4-F)]A-NH2 (staple 9-16; SMILES CC[C@H](C)[C@H](NC(=O)[C@H](Cc1c[nH]c2ccccc12)NC(=O)[C@H](C)NC(C)=O)C(=O)N[C@@H](C)C(=O)N[C@@H](C)C(=O)N[C@@H](C)C(=O)N[C@@H](CC(C)C)C(=O)N[C@@H](CCCNC(=N)N)C(=O)N[C@]1(C)CCCCCCC=CCCC[C@@](C)(C(=O)N[C@@H](Cc2ccc(O)cc2)C(=O)N[C@@H](Cc2ccc(F)cc2)C(=O)N[C@@H](C)C(N)=O)NC(=O)[C@H](CC(N)=O)NC(=O)[C@H](Cc2ccccc2)NC(=O)[C@H](C)NC(=O)[C@H](CC(=O)O)NC(=O)CNC(=O)[C@H](CCC(C)C)NC1=O) [SEQ ID NO: 1779] | 37 | 52 | 
2 | Ac-AWIAAALR[R8][hLeu]GDAFN[S5]A[Phe(4-F)]A-NH2 (staple 9-16; SMILES CC[C@H](C)[C@H](NC(=O)[C@H](Cc1c[nH]c2ccccc12)NC(=O)[C@H](C)NC(C)=O)C(=O)N[C@@H](C)C(=O)N[C@@H](C)C(=O)N[C@@H](C)C(=O)N[C@@H](CC(C)C)C(=O)N[C@@H](CCCNC(=N)N)C(=O)N[C@]1(C)CCCCCCC=CCCC[C@@](C)(C(=O)N[C@@H](C)C(=O)N[C@@H](Cc2ccc(F)cc2)C(=O)N[C@@H](C)C(N)=O)NC(=O)[C@H](CC(N)=O)NC(=O)[C@H](Cc2ccccc2)NC(=O)[C@H](C)NC(=O)[C@H](CC(=O)O)NC(=O)CNC(=O)[C@H](CCC(C)C)NC1=O) [SEQ ID NO: 1780] | 9 | 23 | 
3 | Ac-IWIAQALR[R8]IG[αMeD]AFN[S5]YYA-NH2 (staple 9-16; SMILES CC[C@H](C)[C@H](NC(C)=O)C(=O)N[C@@H](Cc1c[nH]c2ccccc12)C(=O)N[C@H](C(=O)N[C@@H](C)C(=O)N[C@@H](CCC(N)=O)C(=O)N[C@@H](C)C(=O)N[C@@H](CC(C)C)C(=O)N[C@@H](CCCNC(=N)N)C(=O)N[C@]1(C)CCCCCCC=CCCC[C@@](C)(C(=O)N[C@@H](Cc2ccc(O)cc2)C(=O)N[C@@H](Cc2ccc(O)cc2)C(=O)N[C@@H](C)C(N)=O)NC(=O)[C@H](CC(N)=O)NC(=O)[C@H](Cc2ccccc2)NC(=O)[C@H](C)NC(=O)[C@](C)(CC(=O)O)NC(=O)CNC(=O)[C@H]([C@@H](C)CC)NC1=O)[C@@H](C)CC) [SEQ ID NO: 1768] | 206 |  | 
4 | Ac-IWIAQALR[R8][hLeu]GDAFN[S5][Phe(4-F)]YA-NH2 (staple 9-16; SMILES CC[C@H](C)[C@H](NC(C)=O)C(=O)N[C@@H](Cc1c[nH]c2ccccc12)C(=O)N[C@H](C(=O)N[C@@H](C)C(=O)N[C@@H](CCC(N)=O)C(=O)N[C@@H](C)C(=O)N[C@@H](CC(C)C)C(=O)N[C@@H](CCCNC(=N)N)C(=O)N[C@]1(C)CCCCCCC=CCCC[C@@](C)(C(=O)N[C@@H](Cc2ccc(F)cc2)C(=O)N[C@@H](Cc2ccc(O)cc2)C(=O)N[C@@H](C)C(N)=O)NC(=O)[C@H](CC(N)=O)NC(=O)[C@H](Cc2ccccc2)NC(=O)[C@H](C)NC(=O)[C@H](CC(=O)O)NC(=O)CNC(=O)[C@H](CCC(C)C)NC1=O)[C@@H](C)CC) [SEQ ID NO: 1776] | 43 | 58 | 
5 | Ac-IWIAQALR[R8][hLeu]GDAFN[S5][Phe(4-F)][Phe(4-F)]A-NH2 (staple 9-16; SMILES CC[C@H](C)[C@H](NC(C)=O)C(=O)N[C@@H](Cc1c[nH]c2ccccc12)C(=O)N[C@H](C(=O)N[C@@H](C)C(=O)N[C@@H](CCC(N)=O)C(=O)N[C@@H](C)C(=O)N[C@@H](CC(C)C)C(=O)N[C@@H](CCCNC(=N)N)C(=O)N[C@]1(C)CCCCCCC=CCCC[C@@](C)(C(=O)N[C@@H](Cc2ccc(F)cc2)C(=O)N[C@@H](Cc2ccc(F)cc2)C(=O)N[C@@H](C)C(N)=O)NC(=O)[C@H](CC(N)=O)NC(=O)[C@H](Cc2ccccc2)NC(=O)[C@H](C)NC(=O)[C@H](CC(=O)O)NC(=O)CNC(=O)[C@H](CCC(C)C)NC1=O)[C@@H](C)CC) [SEQ ID NO: 1778] | 121 | 127 | 
6 | Ac-IWIAQALR[R8][hLeu]GDAFN[S5]Y[Phe(4-F)]A-NH2 (staple 9-16; SMILES CC[C@H](C)[C@H](NC(C)=O)C(=O)N[C@@H](Cc1c[nH]c2ccccc12)C(=O)N[C@H](C(=O)N[C@@H](C)C(=O)N[C@@H](CCC(N)=O)C(=O)N[C@@H](C)C(=O)N[C@@H](CC(C)C)C(=O)N[C@@H](CCCNC(=N)N)C(=O)N[C@]1(C)CCCCCCC=CCCC[C@@](C)(C(=O)N[C@@H](Cc2ccc(O)cc2)C(=O)N[C@@H](Cc2ccc(F)cc2)C(=O)N[C@@H](C)C(N)=O)NC(=O)[C@H](CC(N)=O)NC(=O)[C@H](Cc2ccccc2)NC(=O)[C@H](C)NC(=O)[C@H](CC(=O)O)NC(=O)CNC(=O)[C@H](CCC(C)C)NC1=O)[C@@H](C)CC) [SEQ ID NO: 1777] | 13 | 27 | 
7 | Ac-IWIAQAA[Cit][R8]IGDAFN[S5]YYA-NH2 (staple 9-16; SMILES CC[C@H](C)[C@H](NC(C)=O)C(=O)N[C@@H](Cc1c[nH]c2ccccc12)C(=O)N[C@H](C(=O)N[C@@H](C)C(=O)N[C@@H](CCC(N)=O)C(=O)N[C@@H](C)C(=O)N[C@@H](C)C(=O)N[C@@H](CCCNC(N)=O)C(=O)N[C@]1(C)CCCCCCC=CCCC[C@@](C)(C(=O)N[C@@H](Cc2ccc(O)cc2)C(=O)N[C@@H](Cc2ccc(O)cc2)C(=O)N[C@@H](C)C(N)=O)NC(=O)[C@H](CC(N)=O)NC(=O)[C@H](Cc2ccccc2)NC(=O)[C@H](C)NC(=O)[C@H](CC(=O)O)NC(=O)CNC(=O)[C@H]([C@@H](C)CC)NC1=O)[C@@H](C)CC) [SEQ ID NO: 1771] | 85 |  | 
8 | Ac-IWIAQAL[Cit][R8]IGDAVN[S5]YYA-NH2 (staple 9-16; SMILES CC[C@H](C)[C@H](NC(C)=O)C(=O)N[C@@H](Cc1c[nH]c2ccccc12)C(=O)N[C@H](C(=O)N[C@@H](C)C(=O)N[C@@H](CCC(N)=O)C(=O)N[C@@H](C)C(=O)N[C@@H](CC(C)C)C(=O)N[C@@H](CCCNC(N)=O)C(=O)N[C@]1(C)CCCCCCC=CCCC[C@@](C)(C(=O)N[C@@H](Cc2ccc(O)cc2)C(=O)N[C@@H](Cc2ccc(O)cc2)C(=O)N[C@@H](C)C(N)=O)NC(=O)[C@H](CC(N)=O)NC(=O)[C@H](C(C)C)NC(=O)[C@H](C)NC(=O)[C@H](CC(=O)O)NC(=O)CNC(=O)[C@H]([C@@H](C)CC)NC1=O)[C@@H](C)CC) [SEQ ID NO: 1774] |  | 0.8 | 
9 | Ac-IWIAQAL[Cit][R8]IGDAAN[S5]YYA-NH2 (staple 9-16; SMILES CC[C@H](C)[C@H](NC(C)=O)C(=O)N[C@@H](Cc1c[nH]c2ccccc12)C(=O)N[C@H](C(=O)N[C@@H](C)C(=O)N[C@@H](CCC(N)=O)C(=O)N[C@@H](C)C(=O)N[C@@H](CC(C)C)C(=O)N[C@@H](CCCNC(N)=O)C(=O)N[C@]1(C)CCCCCCC=CCCC[C@@](C)(C(=O)N[C@@H](Cc2ccc(O)cc2)C(=O)N[C@@H](Cc2ccc(O)cc2)C(=O)N[C@@H](C)C(N)=O)NC(=O)[C@H](CC(N)=O)NC(=O)[C@H](C)NC(=O)[C@H](C)NC(=O)[C@H](CC(=O)O)NC(=O)CNC(=O)[C@H]([C@@H](C)CC)NC1=O)[C@@H](C)CC) [SEQ ID NO: 1773] |  | 39.5 | 
10 | Ac-IWIAQA[αMeL]R[R8]IGDAFN[S5]YYA-NH2 (staple 9-16; SMILES CC[C@H](C)[C@H](NC(C)=O)C(=O)N[C@@H](Cc1c[nH]c2ccccc12)C(=O)N[C@H](C(=O)N[C@@H](C)C(=O)N[C@@H](CCC(N)=O)C(=O)N[C@@H](C)C(=O)N[C@@](C)(CC(C)C)C(=O)N[C@@H](CCCNC(=N)N)C(=O)N[C@]1(C)CCCCCCC=CCCC[C@@](C)(C(=O)N[C@@H](Cc2ccc(O)cc2)C(=O)N[C@@H](Cc2ccc(O)cc2)C(=O)N[C@@H](C)C(N)=O)NC(=O)[C@H](CC(N)=O)NC(=O)[C@H](Cc2ccccc2)NC(=O)[C@H](C)NC(=O)[C@H](CC(=O)O)NC(=O)CNC(=O)[C@H]([C@@H](C)CC)NC1=O)[C@@H](C)CC, Row prints Ac-IWIAQAAmLR$r8IGDAFN$YYA-NH2) [SEQ ID NO: 1767] |  | 86.6 | 
11 | Ac-[Aib]WIAAALR[R8]IGDAFN[S5]YYA-NH2 (staple 9-16; SMILES CC[C@H](C)[C@H](NC(=O)[C@H](Cc1c[nH]c2ccccc12)NC(=O)C(C)(C)NC(C)=O)C(=O)N[C@@H](C)C(=O)N[C@@H](C)C(=O)N[C@@H](C)C(=O)N[C@@H](CC(C)C)C(=O)N[C@@H](CCCNC(=N)N)C(=O)N[C@]1(C)CCCCCCC=CCCC[C@@](C)(C(=O)N[C@@H](Cc2ccc(O)cc2)C(=O)N[C@@H](Cc2ccc(O)cc2)C(=O)N[C@@H](C)C(N)=O)NC(=O)[C@H](CC(N)=O)NC(=O)[C@H](Cc2ccccc2)NC(=O)[C@H](C)NC(=O)[C@H](CC(=O)O)NC(=O)CNC(=O)[C@H]([C@@H](C)CC)NC1=O, also called Ac-AibWIAAALR$r8IGDAFN$YYA-NH2) [SEQ ID NO: 1723] |  |  | Ki [3]: 56 nM; Ki [4]: 20.3 nM; Ki [5]: 4 nM
12 | IWIAQALXAIGDAFNAYYA (Ac- at N-terminus; -NH2 at C-terminus; $r8 at 9 and $ at 16 joined by all-carbon crosslinker; Cit (citrulline) at 8) [SEQ ID NO: 1655] |  |  | Ki [3]: 212 nM; Ki [4]: 109 nM; Ki [5]: 7.5 nM
13 | IWIAQALRAIGDAFNAYYX (N-terminal Ac; $r8 at 9 and $ at 16 (crosslinked); Aib at 19; C-terminal NH2) [SEQ ID NO: 1770] |  | 29 | Ki [6]: 218 nM

Source: patent US20180273587A1 (AILERON THERAPEUTICS, published 2018)
